Results as given in US12331106B2, “Anti-angiopoietin-2 antibodies that induce Tie2 activation” (Institute for Basic Science, priority 2018, dated 2025).

Legend:
[1] = tested on: LLC (Lewis Lung Carcinoma) tumor; experiment: Tumor growth inhibition in LLC subcutaneous model; type: in vivo, C57BL/6 mice; conditions: LLC s.c.; antibody 10 mg/kg i.p. every 2-3 days; Cpt 3 mg/kg i.p. once
Experimental: 2C8H11 anti-Ang2 antibody was tested for its ability to inhibit tumor growth in LLC (Lewis Lung Carcinoma) cell line tumor model. Specifically, LLC cell line (ATCC) was cultured in DMEM (GIBCO™) supplemented with 10% FBS (GIBCO™). LLC cells (1×10^6 in 100 μl of PBS) were subcutaneously injected into 6˜8-week-old C57BL/6 mice (Jackson Laboratory) which were anesthetized with a mixture of Ketamine and Xylazine. When the volume of the tumors reached 50˜100 mm^3, the mice were intraperitoneally administered with 10 mg/kg of 2C8H11 antibody every 2˜3 days. Cisplatin (Cpt) was injected intraperitoneally once at a dose of 3 mg/kg in both monotherapy and combination therapy groups. The changes in tumor volume was tracked over the following days. Tumor volume (V) was measured using the formula: V=(width^2×length)/2 V=(width^2×length)/2
The experiment was performed in 4 groups: Fc (control group), Fc+Cpt group, 2C8H11 group, and 2C8H11+Cpt group. […] Meanwhile, combined treatment with 2C8H11 and Cpt delayed tumor growth by 47% compared with Fc.

[2] = tested on: HUVEC monolayer; experiment: In vitro vascular permeability (leakage) assay, TNF-α induced, FITC-dextran; type: cell-based, human; conditions: HUVECs; pre-treatment antibody 1 μg/ml with Ang2 1 μg/ml 30 min; TNF-α 100 ng/ml 22 hr
Experimental: Vascular leakage assay was carried out in HUVECs using In Vitro Vascular Permeability Assay Kit (Millipore®) according to the manufacturer's instruction. HUVECs were seeded into the insert of the transwell plate and cultured for 3 days for 100% confluence. The HUVECs were pre-incubated with Ang2 (1 μg/ml), Ang2 (1 μg/ml) together with Control, 2C8H11 or 4B9H11 antibody (1 μg/ml) for 30 min, and then TNF-α (100 ng/ml) was added, and the cells were incubated at 37° C. for 22 hr. FITC-dextran was added to the upper chamber and incubated for 20 min. Passage of FITC-dextran though the HUVEC monolayer was measured by a fluorescence reader at excitation and emission wavelengths of 485 and 535 nm, respectively.

[3] = tested on: downstream signaling of the Tie2 receptor (Akt phosphorylation) in HUVECs; experiment: Akt phosphorylation in HUVECs by humanized anti-Ang2 antibodies (immunoblot); type: cell-based, human; conditions: hAng2 1 μg/ml, 30 min, antibody 0.5 μg/ml, maintained until 50 μg/ml
Experimental: To investigate whether the humanized anti-Ang2 antibodies induce the downstream signaling of the Tie2 receptor in endothelial cells, HUVECs (LONZA™) were treated with human Ang2 protein together with humanized anti-Ang2 antibody. Then, the level of Akt phosphorylation, the main downstream signaling protein of Tie2 receptor was measured by immunoblotting. To compare the degree of Akt activation, cells were treated with full-length hAng2 (R&D® Systems) alone or antibody alone in the experiment.
Specifically, HUVEC cells (1×10^5 cells/ml) were cultured in EGM-2 (LONZA™) at 37° C. in 60 mm culture dish. Cells of 90% confluency were incubated with EBM-2 (LONZA™) for 4 hrs. The serum-starved HUVECs were treated with the mixture of anti-Ang2 antibody and hAng2 protein (1 μg/ml, R&D® Systems), and further incubated for 30 min. The cells were washed with cold PBS, treated with lysis buffer, and lysed at 4° C. for 20 min. Then, the cell lysates were prepared by centrifugation at 13000 rpm for 15 min. 5× SDS sample buffer was added to the cell lysate and the mixture was boiled at 95° C. for 5 min. Then, the mixture was subjected to SDS-PAGE and subsequent Western blotting.
To investigate the phosphorylation of Akt, the membrane was blocked with 5% skim milk-containing TBST for 1 hr at RT, and incubated with anti-phospho-Akt antibody (S473) at 4° C. for about 8 hrs. […]

[4] = tested on: Tie2 receptor clustering / FOXO1 translocation in HUVECs; experiment: Tie2 clustering and FOXO1 translocation in HUVECs (immunofluorescence); type: cell-based, human; conditions: HUVECs, 30 min
Experimental: Tie2 clustering at cell-cell junction area and FOXO1 translocation from nucleus to cytosol by anti-Ang2 antibodies were examined in HUVECs by immunofluorescence. Specifically, HUVECs were seeded on 8 well slide chamber (Lab-Tek™ II) and maintained in EGM-2 medium for 2-3 days. At 100% confluence, the cells were serum starved with EBM-2 medium for 4 hrs and then treated with 1 μg/ml anti-Ang2 antibodies together with 1 μg/ml of hAng2 for 30 min. Thereafter, the cells were fixed with 4% formaldehyde in PBS at room temperature (RT) for 10 min, permeabilized with 0.1% TRITON™ X-100 (non-ionic polyoxyethylene surfactant) in PBS, blocked with 1% BSA in PBS at RT for 60 min, and incubated with primary antibodies at RT for 1 hr. The primary antibodies for hTie2, FOXO1, and Human Fc were used. The cells were then incubated with secondary antibodies (Invitrogen) in the dark at RT for 1 hr and mounted with VECTASHIELD® mounting medium with DAPI (Vector Labs, antifade mounting media optimized for immunofluorescence applications). Images were taken with a laser scanning confocal microscope (LSM880, Carl Zeiss).
2C8H11-induced Tie2 clustering and FOXO1 translocation was examined in a time-course study (from 10 min to 240 min). […] 6-4: Inhibition of Vascular Permeability by Humanized Anti-Ang2 Antibodies

[5] = target: T1, hAng2 (Homo sapiens, UniProt O15123); experiment: OCTET affinity of humanized anti-Ang2 antibodies against hAng2; type: binding; conditions: humanized 4B9 antibodies (IgG1) fixed on AR2G biosensor; hAng2 50-0 nM
T1 sequence (O15123 19-496): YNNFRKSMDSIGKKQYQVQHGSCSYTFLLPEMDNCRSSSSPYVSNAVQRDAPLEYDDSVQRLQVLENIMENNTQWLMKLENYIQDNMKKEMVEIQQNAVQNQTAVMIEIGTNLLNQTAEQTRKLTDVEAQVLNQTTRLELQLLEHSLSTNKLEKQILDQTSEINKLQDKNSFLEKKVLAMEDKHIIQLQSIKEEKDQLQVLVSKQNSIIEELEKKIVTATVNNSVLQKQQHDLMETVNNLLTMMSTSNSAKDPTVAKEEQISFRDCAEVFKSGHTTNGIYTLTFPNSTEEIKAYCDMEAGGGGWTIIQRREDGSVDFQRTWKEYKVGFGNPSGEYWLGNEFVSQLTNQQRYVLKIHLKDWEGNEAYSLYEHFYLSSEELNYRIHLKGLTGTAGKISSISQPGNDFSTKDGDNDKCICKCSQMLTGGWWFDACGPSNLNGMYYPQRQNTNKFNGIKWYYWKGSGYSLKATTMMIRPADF

[6] = tested on: Tie2 receptor; experiment: Tie2 phosphorylation in HUVECs (immunoprecipitation/Western); type: cell-based, human; conditions: antibody 0.02-50 μg/ml with hAng2 1 μg/ml, 30 min
Experimental: Ang2 binds to the Tie2 receptor and acts as a weak agonist or antagonist. The anti-Ang2 antibody developed in this invention binds to Ang2 to induce Ang2-antibody complexes, further causing clustering of Tie2 receptors and consequently enhancing activation of Tie2 receptor. Experiments were conducted to analyze the effect of anti-Ang2 antibody on Tie2 phosphorylation using HUVECs.
Specifically, HUVECs (LONZA™) were cultured in EGM-2 (LONZA™) at 37° C. and 5% CO2 concentration in a 100 mm culture dish. At 80-90% confluency, the cells were changed to EBM-2 (LONZA™) medium for 2 hrs˜ 6 hrs for serum starvation. Humanized anti-Ang2 antibodies at various concentrations (0.02 μg/ml to 50 μg/ml) were mixed with hAng2 protein (1 μg/ml, R&D® Systems) for 30 min. Then, the mixtures were treated with the cultured cells and further incubated for 30 min. The cells were washed twice with cold PBS and then lysed in 1000 μl of lysis buffer (10 mM Tris-Cl pH 7.4, 150 mM NaCl, 5 mM EDTA, 10% glycerol, 1% TRITON™ X-100 (non-ionic polyoxyethylene surfactant), protease inhibitor, phosphatase inhibitor) and then lysed at 4° C. for 60 min. Cell extracts were prepared and centrifuged at 12,000 rpm for 10 min. The supernatant was quantitated by bicinchoninic (BCA) assay.
To 0.5 mg of cell lysate, 1 μg of Tie2 antibody (R&D® Systems, AF313) was added and incubated overnight at 4° C. […]

## N.N.[Cl][Pt][Cl] [Fc+Cpt, Cisplatin, reference compound]
[1]
  tumor growth inhibition compared with Fc: similar

B1: 4B9H11: humanized anti-Ang2 human IgG1 antibody from mouse 4B9; VH SEQ ID NO: 43, VL SEQ ID NO: 44 (antibody, V domains shown)
VH: QVQLVESGGGLVKPGGSLRLSCAASGFTFSDYYMYWIRQAPGKGLEWVSTISVGGSFTYYPDSVKGRFTISRDNAKNSLYLQMNSLRAEDTAVYYCARDWGLRPWFVYWGQGTLVTVSS
VL: DIQMTQSPSSLSASVGDRVTITCKASQDVSTAVAWYQQKPGKAPKLLIYWASTRHTGVPSRFSGSGSGTDFTLTISSLQPEDFATYYCQQHYSTPPTFGQGTKVEIK
modifications: human IgG1 constant regions; VH; VL
[2]
  vascular leakage induced by TNF-α (passage of FITC-dextran): significantly inhibited
[3]
  Akt phosphorylation: increased markedly
[4]; anti-human Fc staining
  co-localization of antibody with Tie2 receptor: co-localized with clustered Tie2 receptor at cell-cell contact and endocytosed Tie2 receptor in cytosol
[4]; antibodies 1 μg/ml with hAng2 1 μg/ml
  Tie2 translocation/clustering to cell-cell contact: induced Tie2 translocation/clustering to cell-cell contact
[4]; compared to serum-starved control
  FOXO1 translocation from nucleus to cytosol: markedly disappeared in nucleus
[5]
  Kdis: 1.58e-06 s⁻¹
  Kon: 92900 M⁻¹ s⁻¹
[6]
  phosphorylation of Tie2: strongly induced in a dose-dependent manner
